Measured values from publication PMC10080726 (Molecular cell, 2023).
Blank lines part the entries; values can stand above or below the molecule they belong to. No end group written: not given here.

What was measured:
KLHDC2 SBD = biological target: T1, KLHDC2 SBD (Homo sapiens, UniProt Q9Y2U9); test: SPR binding to immobilised KLHDC2 SBD; conditions: for Kd: 10xHis-KLHDC2 SBD, pH 7.4, 20°C, triplicate, 1-site model, substrates (Figure S1C)
T1 sequence (Q9Y2U9 15-361): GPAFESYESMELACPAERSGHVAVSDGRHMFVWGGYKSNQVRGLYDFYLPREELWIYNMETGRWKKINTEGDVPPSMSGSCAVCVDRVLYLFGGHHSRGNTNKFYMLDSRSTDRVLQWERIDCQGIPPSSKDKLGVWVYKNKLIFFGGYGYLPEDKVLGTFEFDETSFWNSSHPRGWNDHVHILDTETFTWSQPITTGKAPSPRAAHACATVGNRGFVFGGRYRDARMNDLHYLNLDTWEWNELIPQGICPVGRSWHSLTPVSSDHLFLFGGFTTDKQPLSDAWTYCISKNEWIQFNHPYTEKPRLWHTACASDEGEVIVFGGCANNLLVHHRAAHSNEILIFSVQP

neddylated CRL2^KLHDC2 = test: Pulse-chase ubiquitylation of substrates or KLHDC2; type: biochemical, human
KLHDC2-EloBC = test: Native gel electrophoresis, substrate; type: binding, human
CUL2-RBX1 = CUL2-RBX1 neddylation pulse-chase; type: biochemical, human; conditions: tetramer supplied with substrate, without CAND1
[1] = biological target: 10xHis-KLHDC2 SBD (residues 15-361) (human) (UniProt Q9Y2U9); test: SPR
[2] = biological target: KLHDC2-EloBC substrate receptor complex (full-length WT KLHDC2, EloB, EloC) (UniProt Q9Y2U9); test: SEC
[3] = biological target: KLHDC2-EloBC substrate receptor complex (full-length WT KLHDC2, EloB, EloC) (UniProt Q9Y2U9); test: AUC
[4] = biological target: KLHDC3-EloBC complex (full-length KLHDC3, EloB, EloC) (UniProt Q9BQ90)
[5] = biological target: T2, 10xHis-KLHDC2 SBD (residues 15-361) (human, UniProt Q9Y2U9 15-361); test: SPR
T2 sequence (looked up): T1 sequence (Q9Y2U9 15-361)

CRL2^KLHDC2 = test: Pre-steady state rapid quench flow ubiquitylation; type: biochemical, human; conditions: KLHDC2 -KK, UBE2R2, one-hour equilibration of substrate with E3, triplicate
[6] = biological target: T3, KLHDC2 substrate-binding domain (SBD), residues 15-361 (human, UniProt Q9Y2U9 15-361); test: crystal structure
T3 sequence (looked up): T1 sequence (Q9Y2U9 15-361)

crystal structure = biological target: the molecule itself; test: crystal structure
CUL2 in 293T cells = test: FLAG immunoprecipitation of KLHDC2, associated CUL2 neddylation state; type: cell-based, human; conditions: FLAG-KLHDC2, no treatment
KLHDC2 in U2OS cells [7] = test: K48-ubiquitylation of FLAG-KLHDC2 in U2OS cells; type: cell-based, human; conditions: Bortezomib 1 μM, five hours, K48 antibody
NEDD8 in U2OS cells = test: Steady-state NEDD8 levels in U2OS cells; conditions: ectopic expression in KLHDC2 KO U2OS
KLHDC2 in U2OS cells [8] = test: Steady-state KLHDC2 protein levels in U2OS cells
[9] = test system: USP1 N-fragment in U2OS cells; test: Steady-state USP1 N-fragment levels in U2OS cells; conditions: exogenous rescue in KLHDC2 KO U2OS, n=3 technical replicates

affinity lower than physiological substrates (KLHDC2 SBD; vs peptides from physiological substrates USP1 and GFP-RIC8B): 3–5 fold
Molecule: NQRFGSNNTSGS-OH [WT KLHDC2-derived peptide]

Kd [1]: 1400 nM
Molecule: WT KLHDC2-derived peptide (C-terminus of KLHDC2) used in SPR

stoichiometry N [4]: 4
Molecule: KLHDC3-EloBC complex (full-length KLHDC3, EloB, EloC) (from UniProt Q9BQ90 1-382; Q15370 1-104; Q15369 17-112)

Kd [5]: 264 nM
B1: USP1 fragment (residues 592-671) (domain or fragment, UniProt O94782 592-671, looked up)
chain: GHYTASVKVTDLNSLELDKGNFVVDQMCEIGKPEPLNEEEARGVVENYNDEEVSIRVGGNTQPSKVLNKKNVEAIGLLGG

Kd (KLHDC2 SBD): 260 nM
B2: USP1: USP1 fragment, residues 592–671 (protein)
chain: B1 chain
modifications: left off: GST, N-terminal, cleaved
pre-incubation required for maximal ubiquitylation (in words) (neddylated CRL2^KLHDC2; KLHDC2 -KK): required no pre-incubation
*UB transfer to substrate (in words) (neddylated CRL2^KLHDC2; UB~UBE2R2, neddylated CRL2^KLHDC2 (WT), 0.6 μM substrate, pH 7.5, n=3): preferentially promotes *UB ligation to SELK or USP1
rate of substrate modification kobs (CRL2^KLHDC2): 0.21 s⁻¹

binding result [6]: binds
Molecule: NQRFGSNNTSGS (peptide, UniProt Q9Y2U9 395-406, looked up) [12mer peptide derived from the C-terminus of KLHDC2]

The next lines start with the molecule.

Molecule: KLHDC2-EloBC: full-length KLHDC2-EloBC substrate receptor complex, tetrameric
auto-ubiquitylation of KLHDC2 (neddylated CRL2^KLHDC2; UB~UBCH5B, WT or C-degron mutants, with or without SELK): subject to auto-ubiquitylation
FAM-SELK binding (in words) (KLHDC2-EloBC; native gel, 2.5 μM KLHDC2, pH 7.5): a single band appeared
rate of CUL2-RBX1 neddylation (in words) (CUL2-RBX1): greatest

Molecule: CUL2-RBX1: CUL2-RBX1 complex
required pre-incubation time for KLHDC2-FAM-SELK complex formation (KLHDC2-EloBC; with CUL2-RBX1): < 3 h

Molecule: GFP-RIC8B: C-terminal 23 amino-acids of RIC8B appended to the C-terminus of GFP ({GFP}-TITPLEEALNQYSVIEETSSDTD)
Kd (KLHDC2 SBD): 460 nM

Molecule: KLHDC2-EloBC substrate receptor complex (full-length WT KLHDC2, EloB, EloC) (from UniProt Q9Y2U9 1-406; Q15370 1-104; Q15369 17-112)
Kd [2]: 0.18 to 0.26 nM
Kd [3]: 0.15 nM

B3: FAM-USP1: fluorescein-labeled USP1 fragment (protein)
chain: B1 chain
modifications: fluorescein on the amino-terminus (sortase-mediated ligation of FAM-(PEG)5-LPETGG peptide); left off: GST, N-terminal, cleaved
complex formation with KLHDC2-EloBC (in words) (KLHDC2-EloBC; 20-fold molar excess of ligand, 4-hour pre-incubation): only minimal interaction

B4: KLHDC2, full length (the KLHDC2 chain of the KLHDC2-EloBC crystal structure) (natural protein, human, UniProt Q9Y2U9 1-406, looked up)
chain: MADGNEDLRADDLPGPAFESYESMELACPAERSGHVAVSDGRHMFVWGGYKSNQVRGLYDFYLPREELWIYNMETGRWKKINTEGDVPPSMSGSCAVCVDRVLYLFGGHHSRGNTNKFYMLDSRSTDRVLQWERIDCQGIPPSSKDKLGVWVYKNKLIFFGGYGYLPEDKVLGTFEFDETSFWNSSHPRGWNDHVHILDTETFTWSQPITTGKAPSPRAAHACATVGNRGFVFGGRYRDARMNDLHYLNLDTWEWNELIPQGICPVGRSWHSLTPVSSDHLFLFGGFTTDKQPLSDAWTYCISKNEWIQFNHPYTEKPRLWHTACASDEGEVIVFGGCANNLLVHHRAAHSNEILIFSVQPKSLVRLSLEAVICFKEMLANSWNCLPKHLLHSVNQRFGSNNTSGS
binding result (crystal structure): binds

B5: WT KLHDC2: FLAG-tagged WT KLHDC2 expressed in cells; KLHDC2 in CRL2^KLHDC2 (protein)
chain: B4 chain
modifications: left off: FLAG, N-terminal, kept
auto-ubiquitylation of KLHDC2 (neddylated CRL2^KLHDC2; no substrate, UB~UBE2R2): rapidly ubiquitylated
co-precipitated CUL2 neddylation state (in words) (CUL2 in 293T cells): co-precipitated a mixture of unmodified and neddylated CUL2
ubiquitylation of KLHDC2 (in words) (KLHDC2 in U2OS cells [7]): more ubiquitylated than their monomeric counterparts
NEDD8 levels (in words) (NEDD8 in U2OS cells): reduced the levels of unconjugated NEDD8
exogenous expression relative to endogenous KLHDC2 (KLHDC2 in U2OS cells [8]; U2OS): roughly 10 -fold
KLHDC2 protein level (in words) (KLHDC2 in U2OS cells [8]; stable FLAG-KLHDC2 in KLHDC2 KO U2OS): significantly lower than that of CΔ6 and -KK monomers
reduction of USP1 N-fragment levels [9]: ~ 4 fold
